In patent US20250353910A1 (INVENRA, published 2025):

Tests used:
[1] = biological target: T1, Cynomolgus B7H3, His-tagged protein (AcroBiosystems Cat #B73-C52Ha) (cynomolgus); assay: BLI (Octet), bispecific antibody captured on biosensor, soluble antigen
T1 construct: Bought soluble protein; also called Cyno B7H3
Experimental: (§1) Soluble antigens (e.g., B7H3 or GD2) were then added to the system and binding was measured.

[2] = biological target: T2, Recombinant Rat B7-H3 Fc Chimera Protein (R&D Systems Cat #10610-B3-050) (rat, UniProt Q7TPB4 29-244); assay: as above
T2 construct: Bought Fc chimera; not shown: Fc part of the chimera
T2 sequence (looked up): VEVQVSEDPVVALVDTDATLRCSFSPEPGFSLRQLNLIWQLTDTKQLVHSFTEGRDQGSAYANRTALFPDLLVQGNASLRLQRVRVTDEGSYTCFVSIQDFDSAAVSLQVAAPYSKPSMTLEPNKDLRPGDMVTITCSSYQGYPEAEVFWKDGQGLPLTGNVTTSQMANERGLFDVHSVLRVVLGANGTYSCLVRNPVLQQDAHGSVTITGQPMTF
Experimental: as §1

[3] = biological target: T1, Cynomolgus B7H3, His-tagged protein …; assay: BLI (Octet), bispecific antibody captured on biosensor, soluble antigen; via kinetics
Experimental: as §1

[4] = biological target: T2, Recombinant Rat B7-H3 Fc Chimera …; assay: as above
Experimental: as §1

B1: Exemplary Bispecific Antibody 1 (B7H3 x GD2) (bispecific antibody)
chain 1: not shown
chain 2: EVQLVESGGGLVQPGGSLRLSCAASGFTFSTYYIHWVRQAPGKGLEWVAWIHPSGKYTYYADSVKGRFTISADTSKNTAYLQMNSLRAEDTAVYYCARHYQVGAMDYWGQGTLVTVSSAQPREPQVYTLPPCRDWLTKNQVSLTCLVKGFYPSDIAVEWESNGQPENNYKTTPPVLDSDGSFFLYSKLTVDKSRWQQGNVFSCSVMHEALHNHYTQKSLSLSPGK
chain 3: not shown
chain 4: EVQLVESGGGLVQPGGSLRLSCAASGSSFTGYNMNWVRQAPGKGLEWVAAIDPYYGGTYYADSVKGRFTISADTSKNTAYLQMNSLRAEDTAVYYCASGMEYWGQGTLVTVSSASTKGPSVFPLAPSSKSTSGGTAALGCLVKDYFPEPVTVSWNSGALTSGVHTFPAVLQSSGLYSLSSVVTVPSSSLGTQTYICNVNHKPSNTKVDKKVEPKSC
notes: B7H3 arm on chains 1 and 2, GD2 arm on chains 3 and 4; also called Ex. bsAb; 1×1 bispecific antibody
[1]
  koff: 0.000239 s⁻¹
  kon: 206000 M⁻¹ s⁻¹
[2]
  koff: 0.00137 s⁻¹
  kon: 199000 M⁻¹ s⁻¹
[3]
  Kd: 1.16 nM
[4]
  Kd: 6.88 nM
